# Measurements reported in IntAct's records for PubMed 17035250.
# B1: Fibulin-5 (Homo sapiens), Q9UBX5 (parent)
# chain: MPGIKRILTVTILALCLPSPGNAQAQCTNGFDLDRQSGQCLDIDECRTIPEACRGDMMCVNQNGGYLCIPRTNPVYRGPYSNPYSTPYSGPYPAAAPPLSAPNYPTISRPLICRFGYQMDESNQCVDVDECATDSHQCNPTQICINTEGGYTCSCTDGYWLLEGQCLDIDECRYGYCQQLCANVPGSYSCTCNPGFTLNEDGRSCQDVNECATENPCVQTCVNTYGSFICRCDPGYELEEDGVHCSDMDECSFSEFLCQHECVNQPGTYFCSCPPGYILLDDNRSCQDINECEHRNHTCNLQQTCYNLQGGFKCIDPIRCEEPYLRISDNRCMCPAENPGCRDQPFTILYRDMDVVSGRSVPADIFQMQATTRYPGAYYIFQIKSGNEGREFYMRQTGPISATLVMTRPIKGPREIQLDLEMITVNTVINFRGSSVIRLRIYVSQYPF
# Variants of: B1
# Settings: with eln_bovin ELN
row,effect of a mutation on the interaction,Variant
1,decreasing interaction strength,C217R
2,decreasing interaction strength,S227P
